Source: patent publication US20160319321
Where “and” joins values, the source holds several entries; their conditions need not be identical. Equal entries are not always repeated.

How the values were obtained:
[1] = molecular target: T1, Lys(Dnp)-DSGDR-HGTFT-Lys(Abz)amide
T1 chain: KDSGDRHGTFTK

[2] = molecular target: T2, Lys(Dnp)-DGGDR-HGEGT-Lys(Abz)amide
T2 chain: KDGGDRHGEGTK

[3] = molecular target: T3, DVKPGQPEYDEGDR-[Arg34]GLP-1(9-37)
T3 chain: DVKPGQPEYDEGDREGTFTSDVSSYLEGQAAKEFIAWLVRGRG

[4] = molecular target: T4, Lys(Dnp)-DSGDR-EGTFT-Lys(Abz)amide
T4 chain: KDSGDREGTFTK

[5] = molecular target: T5, Lys(Dnp)-DDGDR-QGTFT-Lys(Abz)amide
T5 chain: KDDGDRQGTFTK

[6] = molecular target: T6, Lys(Dnp)-DLGDR-HGTFT-Lys(Abz)amide
T6 chain: KDLGDRHGTFTK

[7] = molecular target: T7, Lys(Dnp)-TEGDR-HAEGT-Lys(Abz)amide
T7 chain: KTEGDRHAEGTK

[8] = molecular target: T8, DVKPGQPLYDEGDR-[Arg34]GLP-1(9-37)
T8 chain: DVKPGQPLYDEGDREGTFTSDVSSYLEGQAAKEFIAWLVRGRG

[9] = molecular target: T9, Lys(Dnp)-QDEGDR-HAEGT-Lys(Abz)amide
T9 chain: KQDEGDRHAEGTK

[10] = molecular target: T10, Lys(Dnp)-EDGDR-HGEGT-Lys(Abz)amide
T10 chain: KEDGDRHGEGTK

[11] = molecular target: T11, Lys(Dnp)-EGGDR-HAEGT-Lys(Abz)amide
T11 chain: KEGGDRHAEGTK

[12] = molecular target: T12, DVKPGQELYDDDDK-[Arg34]GLP-1(9-37)
T12 chain: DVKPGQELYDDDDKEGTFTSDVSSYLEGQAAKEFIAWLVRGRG

[13] = molecular target: T13, DVKEGQPLYDDDDK-[Arg34]GLP-1(9-37)
T13 chain: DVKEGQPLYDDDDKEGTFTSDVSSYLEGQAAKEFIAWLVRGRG

[14] = molecular target: T14, Lys(Dnp)-DYGDR-EGTFT-Lys(Abz)amide
T14 chain: KDYGDREGTFTK

[15] = molecular target: T15, Lys(Dnp)-DWGDR-EGTFT-Lys(Abz)amide
T15 chain: KDWGDREGTFTK

[16] = molecular target: T16, Lys(Dnp)-MEGDR-HAEGT-Lys(Abz)amide
T16 chain: KMEGDRHAEGTK

[17] = molecular target: T17, Lys(Dnp)-EDGDR-EGTFT-Lys(Abz)amide
T17 chain: KEDGDREGTFTK

[18] = molecular target: T18, Lys(Dnp)-EEGDR-EGTFT-Lys(Abz)amide
T18 chain: KEEGDREGTFTK

[19] = molecular target: T19, Lys(Dnp)-VDEGDR-HAEGT-Lys(Abz)amide
T19 chain: KVDEGDRHAEGTK

[20] = molecular target: T20, Lys(Dnp)-TDEGDR-HAEGT-Lys(Abz)amide
T20 chain: KTDEGDRHAEGTK

[21] = molecular target: T21, Lys(Dnp)-IMGDRHAEGT-Lys(Abz)amide
T21 chain: XIMGDRHAEGTX

[22] = molecular target: T22, Lys(Dnp)-DEGDR-EGTFT-Lys(Abz)amide
T22 chain: KDEGDREGTFTK

[23] = molecular target: T23, Lys(Dnp)-IYGDRHAEGT-Lys(Abz)amide
T23 chain: KIYGDRHAEGTK

[24] = molecular target: T24, DVKPGQPLEDEGDR-[Arg34]GLP-1(9-37)
T24 chain: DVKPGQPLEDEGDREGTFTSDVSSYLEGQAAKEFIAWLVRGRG

[25] = molecular target: T25, Lys(Dnp)-VIGDRHAEGT-Lys(Abz)amide
T25 chain: KVIGDRHAEGTK

[26] = molecular target: T26, Lys(Dnp)-DHGDR-HAEGT-Lys(Abz)amide
T26 chain: KDHGDRHAEGTK

[27] = molecular target: T27, Lys(Dnp)-EQGDR-HAEGT-Lys(Abz)amide
T27 chain: KEQGDRHAEGTK

[28] = molecular target: T28, Lys(Dnp)-DLGDR-HAEGT-Lys(Abz)amide
T28 chain: KDLGDRHAEGTK

[29] = molecular target: T29, Lys(Dnp)-DFGDR-HAEGT-Lys(Abz)amide
T29 chain: KDFGDRHAEGTK

[30] = molecular target: T30, Lys(Dnp)-INDDRHAEGT-Lys(Abz)amide
T30 chain: XINDDRHAEGTX

[31] = molecular target: T31, DVKPEQPLYDDDDK-[Arg34]GLP-1(9-37)
T31 chain: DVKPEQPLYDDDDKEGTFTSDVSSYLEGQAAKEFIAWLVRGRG

[32] = molecular target: T32, Lys(Dnp)-EAGDR-HGEGT-Lys(Abz)amide
T32 chain: KEAGDRHGEGTK

[33] = molecular target: T33, Lys(Dnp)-VEGDR-HAEGT-Lys(Abz)amide
T33 chain: KVEGDRHAEGTK

[34] = molecular target: T34, Lys(Dnp)-FDEGDR-HAEGT-Lys(Abz)amide
T34 chain: KFDEGDRHAEGTK

[35] = molecular target: T35, DVKPGEPLYDEGDR-[Arg34]GLP-1(9-37)
T35 chain: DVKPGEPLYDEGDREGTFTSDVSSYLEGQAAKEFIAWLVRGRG

[36] = molecular target: T36, Lys(Dnp)-DDGDR-HAEGT-Lys(Abz)amide
T36 chain: KDDGDRHAEGTK

[37] = molecular target: T37, Lys(Dnp)-DAGDR-HAEGT-Lys(Abz)amide
T37 chain: KDAGDRHAEGTK

[38] = molecular target: T38, Lys(Dnp)-QEGDR-HAEGT-Lys(Abz)amide
T38 chain: KQEGDRHAEGTK

[39] = molecular target: T39, Lys(Dnp)-LDEGDR-HAEGT-Lys(Abz)amide
T39 chain: KLDEGDRHAEGTK

[40] = molecular target: T40, Lys(Dnp)-DYGDR-HGEGT-Lys(Abz)amide
T40 chain: KDYGDRHGEGTK

B1: bovine Enterokinase light chain variant (C112A, L134K, I135K) (protein)
chain: IVGGSDSREGAWPWVVALYFDDQQVCGASLVSRDWLVSAAHCVYGRNMEPSKWKAVLGLHMASNLTSPQIETRLIDQIVINPHYNKRRKNNDIAMMHLEMKVNYTDYIQPIALPEENQVFPPGRICSIAGWGAKKYQGSTADVLQEADVPLLSNEKCQQQMPEYNITENMVCAGYEAGGVDSCQGDSGGPLMCQENNRWLLAGVTSFGYQCALPNRPGVYARVPRFTEWIQSFLH
- Activity (%) [1]: 172%
- Activity (%) [2]: 301%
- Activity (%) [3]: 625%
- Activity (%) [4]: 342%
- Activity (%) [5]: 338%
- Activity (%) [6]: 216%
- Activity (%) [7]: 393%
- Activity (%) [8]: 707%
- Activity (%) [9]: 141%
- Activity (%) [10]: 462%
- Activity (%) [11]: 586%
- Activity (%) [12]: 168%
- Activity (%) [13]: 178%
- Activity (%) [14]: 373%
- Activity (%) [15]: 410%
- Activity (%) [16]: 419%
- Activity (%) [17]: 505%
- Activity (%) [18]: 580%
- Activity (%) [19]: 184%
- Activity (%) [20]: 237%
- Activity (%) [21]: 125%
- Activity (%) [22]: 890%
- Activity (%) [23]: 117%
- Activity (%) [24]: 653%
- Activity (%) [25]: 68%
- Activity (%) [26]: 545%
- Activity (%) [27]: 808%
- Activity (%) [28]: 795% and 722%
- Activity (%) [29]: 550%
- Activity (%) [30]: 126%
- Activity (%) [31]: 167%
- Activity (%) [32]: 275%
- Activity (%) [33]: 388%
- Activity (%) [34]: 200%
- Activity (%) [35]: 895%
- Activity (%) [36]: 604% and 601%
- Activity (%) [37]: 496%
- Activity (%) [38]: 551%
- Activity (%) [39]: 259%
- Activity (%) [40]: 469%
